Assay results from patent US20260183411A1, “TARGETING SORTILIN” (priority 2024, published 2026).

Key:
MDA-MB-231 xenograft = experiment: MDA-MB-231 murine xenograft efficacy model; type: in vivo, mouse
In short: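 Female BALB/c nude mice bearing subcutaneous MDA-MB-231 tumours (10×10^6 cells in PBS/Matrigel), treated from ~150-200 mm^3 mean volume. Free MMAE given i.v. QW×4 at 0.6 or 0.06 mg/kg in 25 mM histidine/10% sucrose pH 7. Caliper volumes twice weekly; TGI (%) calculated against vehicle group.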

[1] = Murine hematotoxicity assay; type: in vivo, mouse; details: 3 mg/kg i.v. QW×4, BALB/c mice
Experimental: (§1) Murine hematotoxicity experiments were conducted at Charles River Laboratories and the care and use of animals was conducted in accordance with the regulations of the Association for Assessment and Accreditation of Laboratory Animal Care (AAALAC). Wild type BALB/c, female, 7-8 weeks, weighing approximately 18-22 g were randomized and dosed intravenously with control or test articles at a QW×4 schedule. Dosing volume was adjusted based on body weight and was administered at 10 mL/Kg. PDCs were dissolved in 25 mM Histidine 10% sucrose pH 7 and 3 mg/kg was administered. Free MMAE payload was also tested, and similarly dissolved in 25 mM Histidine 10% sucrose pH 7 and administered to the mice at a dose of […] by i.v. injection at a QW×4 schedule. 3 days following each dose, 150 μL of whole blood was collected via submandibular method and placed in K2 EDTA tubes stored on ice. Blood neutrophil counts were performed on the day of collection by IDEXX labs. Body weights were recorded twice a week until study endpoint.
as §1, with “As outlined in the material” for “Murine hematotoxicity experiments were conducted at Charles River Laboratories”, “methods” for “the care and use”, “Example 1, wild” for “animals was conducted in accordance with the regulations of the Association for Assessment and Accreditation of Laboratory Animal Care (AAALAC). Wild”, “PDCs were dissolved in 25 mM Histidine 10% sucrose pH 7 and 3 mg/kg was administered.” left out

CC[C@H](C)[C@@H]([C@@H](CC(=O)N1CCC[C@H]1[C@H](OC)[C@@H](C)C(=O)N[C@H](C)[C@@H](O)c1ccccc1)OC)N(C)C(=O)[C@@H](NC(=O)[C@H](C(C)C)N(C)C(=O)OCc1ccc(NC(=O)[C@H](CCCNC(N)=O)NC(=O)[C@@H](NC(=O)CCCC(=O)NCCC(=O)N(C)CC(=O)N(C)CC(=O)N(C)CC(=O)N(C)CC(=O)N[C@@H](C)C(=O)N2CCC[C@H]2C(=O)N[C@@H](CCCNC(=N)N)C(=O)N[C@@H](Cc2c[nH]c3ccccc23)C(=O)N[C@@H](CC(=O)O)C(=O)N[C@@H](C)C(=O)N2CCC[C@H]2C(=O)N[C@@H](CC(C)C)C(=O)N[C@@H](CCCNC(=N)N)C(=O)N[C@@H](CC(=O)O)C(=O)N2CCC[C@H]2C(=O)N[C@@H](C)C(=O)N[C@@H](CC(C)C)C(=O)N[C@@H](CCCNC(=N)N)C(=O)N[C@@H](CCC(N)=O)C(=O)N[C@@H](CC(C)C)C(=O)N[C@@H](CC(C)C)C(=O)O)C(C)C)cc1)C(C)C [PRGN_WT_PDC]
tumor growth inhibition, dose dependence (MDA-MB-231 xenograft; 3, 1, 0.3 mg/kg i.v. QW×4): dose-dependent tumor growth inhibition
body weight variation (Example 6) (MDA-MB-231 xenograft; PDC at each dose, free MMAE at equivalency to 3 mg/kg PDC): mirrored that observed with vehicle treatment
body weight loss (Example 8) (MDA-MB-231 xenograft; PDCs 3 mg/kg, free MMAE at molar equivalency (0.6 mg/kg)): body weight loss tracked each other
blood neutrophil counts compared to vehicle or MMAE treatment [1]: reduced neutrophil counts
